Source: the Immune Epitope Database (IEDB)

Experiments:
[1] = molecular target: HLA-A*02:03; assay: IEDB peptide-MHC binding, purified MHC/competitive/radioactivity; ≥ and ≤ were set here for values at or beyond the usual limits of such assays
[2] = molecular target: HLA-A*02:06; assay: as above
[3] = molecular target: HLA-A*02:02; assay: IEDB peptide-MHC binding, purified MHC/competitive/radioactivity; filed as Kd, often an IC50 or EC50 that approximates it; ≥ and ≤ were set here for values at or beyond the usual limits of such assays
[4] = molecular target: HLA-A*68:02; assay: as above
[5] = molecular target: HLA-A*02:02; assay: IEDB peptide-MHC binding, purified MHC/competitive/radioactivity; ≥ and ≤ were set here for values at or beyond the usual limits of such assays; conditions: source organism: Human immunodeficiency virus type 1 (isolate YU2)
[6] = molecular target: HLA-A*68:02; assay: as above; conditions: source organism: Human immunodeficiency virus type 1 (isolate YU2)
[7] = molecular target: HLA-A*02:06; assay: IEDB peptide-MHC binding, purified MHC/competitive/radioactivity; filed as Kd, often an IC50 or EC50 that approximates it; ≥ and ≤ were set here for values at or beyond the usual limits of such assays; conditions: source organism: Human immunodeficiency virus type 1 (isolate YU2)
[8] = molecular target: HLA-A*02:03; assay: as above; conditions: source organism: Human immunodeficiency virus type 1 (isolate YU2)
[9] = source organism: Human immunodeficiency virus 1
[10] = source organism: Human immunodeficiency virus type 1 (isolate YU2)

| Sequence | IC50 [5] | IC50 [1, 10] | IC50 [2, 10] | IC50 [6] | also measured |
| --- | --- | --- | --- | --- | --- |
| SLLNATDIAV |  |  |  |  | IC50 [1, 9]: 238 nM; IC50 [2, 9]: 28.5 nM; Kd [3, 9]: 1300 nM; Kd [4, 9]: 5480 nM |
| AIIRILQQL | 22.6 nM | 41.7 nM | 38.5 nM | 548 nM |  |
| LTFGWCFKLV | 48.9 nM | 185 nM |  | 6.2 nM |  |
| MASDFNLPPV | 22.6 nM | 55.6 nM | 33.6 nM | 18.2 nM |  |
| ILKEPVHGV |  |  |  |  | Kd [7]: ≥ 37000 nM |
| KAACWWAGI |  | 83.3 nM | 161 nM |  | Kd [3, 10]: 1080 nM |
| LLQLTVWGI | 215 nM | 43.5 nM | 24.7 nM | 645 nM |  |
| LVGPTPVNI | 154 nM | 19.2 nM |  | 67.8 nM | Kd [7]: 2850 nM |
| RILQQLLFI |  | 125 nM | 37 nM |  | Kd [3, 10]: 1540 nM; Kd [4, 10]: 1820 nM |
| KMIGGIGGFI | 54.4 nM | 4.8 nM | 771 nM |  | Kd [4, 10]: 3330 nM |
| VLAEAMSQV | 82.7 nM | 15.2 nM | 116 nM |  |  |
| LTFGWCFKL | 33.1 nM |  | 206 nM | 5.6 nM | Kd [8]: 4550 nM |
| MTNNPPIPV |  | 33.3 nM |  | 12.1 nM | Kd [3, 10]: 7170 nM; Kd [7]: 1610 nM |
